The target of the experiment is T1, human cloned SST-R2 (human, UniProt P30874 1-369).
T1 construct: whole, on cells; Assayed as membrane preparations of CHO cells expressing the cloned receptor, not as intact cells; also called hSST-R2; human SST-R2
Kind of experiment: inhibition of 125I-Tyr11-SRIF-14 binding to membranes of CHO cells expressing cloned human SST-R2. As to the method:
The SST analogs were tested for their potency in inhibition of the binding of ¹²⁵I-Tyr¹¹-SRIF (based on the method described by Raynor et. al., Molecular Pharmnacology 43: 838, 1993) to membrane preparations expressing the transmembranal SST receptors (SST-R1, 2, 3, 4 or 5). The receptor preparations used for these tests were either from the cloned human receptors selectively and stably expressed in Chinese Hamster Ovary (CHO) cells or from cell lines naturally expressing the SST-R5. Typically, cell membranes were homogenized in Tris buffer in the presence of protease inhibitors and incubated for 30-40 minutes with ¹²⁵I-Tyr¹¹-SRIF with different concentrations of the tested sample. The binding reactions were filtered, the filters were washed and the bound radioactivity was counted in β counter after addition of scintillation colution. Non specific binding was defined as the radioactivity remaining bound in the presence of 1 μM unlabeled SRIF-14.

*1 amine or outer side, *2 acyl side, *3 side chain or, on linkers, in order; H or OH if unused. Where no end group is shown, it is not given here. [ ]: non-standard residue; d: D form. ReO = oxorhenium(V), one metal core binding both hemi-chelators, from trichlorooxobis(triphenylphosphine)rhenium(V); GlyN3 = N-(3-aminopropyl)glycine amide, Cys acylated on the omega-amine, NC(=O)CN(CCCN[*:3])[*:1]; N(6-aminohexyl)Gly = O=C(CN(CCCCCCN[*:3])[*:1])[*:2]; N(2-Aminoethyl)Gly = O=C(CN(CCN[*:3])[*:1])[*:2]

T1 sequence (P30874 whole entry): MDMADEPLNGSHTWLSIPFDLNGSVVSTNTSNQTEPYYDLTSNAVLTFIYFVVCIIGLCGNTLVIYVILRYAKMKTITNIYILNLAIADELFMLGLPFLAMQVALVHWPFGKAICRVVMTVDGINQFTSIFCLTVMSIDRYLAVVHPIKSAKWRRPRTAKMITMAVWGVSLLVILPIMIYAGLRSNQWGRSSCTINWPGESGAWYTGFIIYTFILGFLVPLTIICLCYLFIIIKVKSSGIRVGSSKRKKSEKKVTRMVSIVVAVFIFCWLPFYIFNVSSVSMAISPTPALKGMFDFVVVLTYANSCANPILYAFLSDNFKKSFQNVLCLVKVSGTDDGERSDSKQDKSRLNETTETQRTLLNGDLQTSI

B1: ReO-GF-31 (peptide)
peptide: CFWWKTFG
modifications: not fully specified; D-Cys at 1; D-Trp at 4; GlyN3 building unit at 8 with L-Cys on its omega-amine; C-terminal amide; ReO (oxorhenium(V)) chelated by the two Cys closes the ring
notes: also called ReO-DCys*-Phe-Trp-DTrp-Lys-Thr-Phe-GlyN3(LCys*)-NH2
Regarding B1, the IC50 (in general, the midpoint of a concentration-inhibition curve) came out at 1.6 nM. This lies in the single-digit nanomolar range.

B2: ReO-GF-37 (peptide)
peptide: CXFWWKTFG
modifications: L-Cys at 1; beta-Ala at 2 (written X); D-Trp at 5; GlyN2 building unit at 9 with L-Cys on its omega-amine; C-terminal amide; ReO (oxorhenium(V)) chelated by the two Cys closes the ring
notes: also called ReO-LCys*-βAla-Phe-Trp-DTrp-Lys-Thr-Phe-GlyN2(LCys*)-NH2
B2 gave an IC50 of 3 nM.

B3: ReO-GF-26 (peptide)
peptide: CGFW[dW]KTF[GlyN3](dC)-NH2
modifications: bridge (positions not given here) via ReO; not fully specified (bridges); also: N2S2 oxorhenium(V) chelate via the two Cys
B3: the IC50 was ~10 nM.

B4: ReO-GF-9 (peptide)
peptide: CGFW[dW]KTF[N(6-aminohexyl)Gly](Cys)-NH2
modifications: bridge (positions not given here); not fully specified (bridges); also: N2S2 oxorhenium(V) chelate via the two Cys
B4: the IC50 is ~10 nM.

B5: ReO-GF-32 (peptide)
peptide: CFWWKTFG
modifications: not fully specified; D-Cys at 1; D-Trp at 4; GlyN3 building unit at 8 with D-Cys on its omega-amine; C-terminal amide; ReO (oxorhenium(V)) chelated by the two Cys closes the ring
Molecule B5 displayed an IC50 of 14 nM.

B6: ReO-GF-40 (peptide)
peptide: CXFWWKTFG
modifications: not fully specified; D-Cys at 1; beta-Ala at 2 (written X); D-Trp at 5; GlyN2 building unit at 9 with D-Cys on its omega-amine; C-terminal amide; ReO (oxorhenium(V)) chelated by the two Cys closes the ring
As for B6, the IC50 was > 10 nM.

B7: ReO-GF-6 (peptide)
peptide: CXFWWKTFG
modifications: L-Cys at 1; beta-Ala at 2 (written X); D-Trp at 5; GlyN6 building unit at 9 with D-Cys on its omega-amine; C-terminal amide; ReO (oxorhenium(V)) chelated by the two Cys closes the ring
notes: also called ReO-GF-06; ReO-LCys*-βAla-Phe-Trp-DTrp-Lys-Thr-Phe-GlyN6(DCys*)-NH2
The molecule B7 gave an IC50 of 5.3 nM.

B8: ReO-GF-2 (peptide)
peptide: CXFWWKTFG
modifications: L-Cys at 1; GABA at 2 (written X); D-Trp at 5; GlyN6 building unit at 9 with D-Cys on its omega-amine; C-terminal amide; ReO (oxorhenium(V)) chelated by the two Cys closes the ring
notes: also called ReO-GF-02; ReO-LCys*-GABA-Phe-Trp-DTrp-Lys-Thr-Phe-GlyN6(DCys*)-NH2
With B8, the IC50 worked out at 3.8 nM.

B9: ReO-GF-18 (peptide)
peptide: CXFWWKTFG
modifications: L-Cys at 1; GABA at 2 (written X); D-Trp at 5; GlyN3 building unit at 9 with D-Cys on its omega-amine; C-terminal amide; ReO (oxorhenium(V)) chelated by the two Cys closes the ring
Consider B9, for which the IC50 was ~10 nM.

B10: ReO-GF-15 (peptide)
peptide: CFWWKTFG
modifications: not fully specified; D-Cys at 1; D-Trp at 4; GlyN6 building unit at 8 with L-Cys on its omega-amine; C-terminal amide; ReO (oxorhenium(V)) chelated by the two Cys closes the ring
Turning to B10, the half-maximal inhibitory concentration (IC50) is > 10 nM.

B11: ReO-GF-42 (peptide)
peptide: CGFW[dW]KTF[N(2-Aminoethyl)Gly](dC)-NH2
modifications: bridge (positions not given here) via ReO; not fully specified (bridges); also: N2S2 oxorhenium(V) chelate via the two Cys
On to B11, for which the IC50 is > 10 nM.

B12: ReO-GF-3 (peptide)
peptide: CXFWWKTFG
modifications: D-Cys at 1; GABA at 2 (written X); D-Trp at 5; GlyN6 building unit at 9 with L-Cys on its omega-amine; C-terminal amide; ReO (oxorhenium(V)) chelated by the two Cys closes the ring
notes: also called ReO-GF-03; ReO-DCys*-GABA-Phe-Trp-DTrp-Lys-Thr-Phe-GlyN6(LCys*)-NH2
For the molecule B12, the half-maximal inhibitory concentration (IC50) was 6 nM.

B13: ReO-GF-36 (peptide)
peptide: CXFWWKTFG
modifications: not fully specified; D-Cys at 1; GABA at 2 (written X); D-Trp at 5; GlyN2 building unit at 9 with D-Cys on its omega-amine; C-terminal amide; ReO (oxorhenium(V)) chelated by the two Cys closes the ring
Take B13: the IC50 is > 10 nM.

B14: ReO-GF-17 (peptide)
peptide: CXFWWKTFG
modifications: L-Cys at 1; GABA at 2 (written X); D-Trp at 5; GlyN3 building unit at 9 with L-Cys on its omega-amine; C-terminal amide; ReO (oxorhenium(V)) chelated by the two Cys closes the ring
Regarding B14, the concentration for half-maximal inhibition (IC50) turned out to be 24 nM.

B15: ReO-GF-21 (peptide)
peptide: CXFWWKTFG
modifications: L-Cys at 1; beta-Ala at 2 (written X); D-Trp at 5; GlyN3 building unit at 9 with L-Cys on its omega-amine; C-terminal amide; ReO (oxorhenium(V)) chelated by the two Cys closes the ring
notes: also called ReO-LCys*-βAla-Phe-Trp-DTrp-Lys-Thr-Phe-GlyN3(LCys*)-NH2
For the molecule B15, the half-maximal inhibitory concentration (IC50) amounted to 1 nM.

B16: ReO-GF-4 (peptide)
peptide: CXFWWKTFG
modifications: not fully specified; D-Cys at 1; GABA at 2 (written X); D-Trp at 5; GlyN6 building unit at 9 with D-Cys on its omega-amine; C-terminal amide; ReO (oxorhenium(V)) chelated by the two Cys closes the ring
B16 came in with an IC50 of 12 nM.

B17: ReO-GF-24 (peptide)
peptide: CXFWWKTFG
modifications: not fully specified; D-Cys at 1; beta-Ala at 2 (written X); D-Trp at 5; GlyN3 building unit at 9 with D-Cys on its omega-amine; C-terminal amide; ReO (oxorhenium(V)) chelated by the two Cys closes the ring
The molecule B17 yielded an IC50 of 23 nM. Compared with the last molecule, the IC50 is about 1.9-fold higher.

B18: ReO-GF-1 (peptide)
peptide: CXFWWKTFG
modifications: L-Cys at 1; GABA at 2 (written X); D-Trp at 5; GlyN6 building unit at 9 with L-Cys on its omega-amine; C-terminal amide; ReO (oxorhenium(V)) chelated by the two Cys closes the ring
The molecule B18 showed a 50% inhibitory concentration (IC50) of 16 nM.

B19: ReO-GF-43 (peptide)
peptide: CGFWWKTFG
modifications: not fully specified; D-Cys at 1; D-Trp at 5; GlyN2 building unit at 9 with L-Cys on its omega-amine; C-terminal amide; ReO (oxorhenium(V)) chelated by the two Cys closes the ring
For the molecule B19, the IC50 is > 10 nM.

B20: ReO-GF-19 (peptide)
peptide: CXFWWKTFG
modifications: D-Cys at 1; GABA at 2 (written X); D-Trp at 5; GlyN3 building unit at 9 with L-Cys on its omega-amine; C-terminal amide; ReO (oxorhenium(V)) chelated by the two Cys closes the ring
As for B20, the IC50 was > 10 nM.

B21: ReO-GF-34 (peptide)
peptide: CXFWWKTFG
modifications: L-Cys at 1; GABA at 2 (written X); D-Trp at 5; GlyN2 building unit at 9 with D-Cys on its omega-amine; C-terminal amide; ReO (oxorhenium(V)) chelated by the two Cys closes the ring
With B21, the IC50 is ~100 nM.

B22: ReO-GF-28 (peptide)
peptide: CGFWWKTFG
modifications: not fully specified; D-Cys at 1; D-Trp at 5; GlyN3 building unit at 9 with D-Cys on its omega-amine; C-terminal amide; ReO (oxorhenium(V)) chelated by the two Cys closes the ring
As for B22, the IC50 was > 10 nM.

B23: ReO-GF-7 (peptide)
peptide: CXFWWKTFG
modifications: not fully specified; D-Cys at 1; beta-Ala at 2 (written X); D-Trp at 5; GlyN6 building unit at 9 with L-Cys on its omega-amine; C-terminal amide; ReO (oxorhenium(V)) chelated by the two Cys closes the ring
B23 displayed an IC50 of 12 nM.

B24: ReO-GF-47 (peptide)
peptide: CFWWKTFG
modifications: not fully specified; D-Cys at 1; D-Trp at 4; GlyN2 building unit at 8 with L-Cys on its omega-amine; C-terminal amide; ReO (oxorhenium(V)) chelated by the two Cys closes the ring
As to B24, the IC50 is > 10 nM.

B25: ReO-GF-39 (peptide)
peptide: CXFWWKTFG
modifications: D-Cys at 1; beta-Ala at 2 (written X); D-Trp at 5; GlyN2 building unit at 9 with L-Cys on its omega-amine; C-terminal amide; ReO (oxorhenium(V)) chelated by the two Cys closes the ring
For B25, the half-maximal inhibitory concentration (IC50) was found to be 10 nM.

The record behind these values is patent US20050226813A1, “Labelled somatostatin analogs backbone cyclized through metal complexation” (priority 2002, published 2005).
